From article PMC5758831, “A proline deletion in IFNAR1 impairs IFN-signaling and underlies increased resistance to tuberculosis in humans” (Nature Communications, 2018)

Assays:
[1] = molecular target: T1, hIFNAR1-ECD-Del (extracellular domain of human IFNAR1 with the Pro335 deletion) (human, UniProt P17181 28-424, delete P335); assay: SPR; ProteOn XPR36, HTG chip; His-tagged hIFNAR1-ECD or hIFNAR1-ECD-Del (25 µg/ml in TBS) immobilised on the nickel activated chip; ReBif (hIFN-β) in TBS as analyte at various concentrations; TBS running buffer; Langmuir binding model; in the absence of IFNAR2; conditions: both partners purified
T1 construct: Naturally occurring variant, made by site-directed mutagenesis of hIFNAR1-ECD; N-terminal 6xHis by the cloning paragraph, C-terminal His-tag by the SPR paragraph; also called IFNAR1Del; not shown: 6xHis, N-terminal, kept
T1 sequence (looked up): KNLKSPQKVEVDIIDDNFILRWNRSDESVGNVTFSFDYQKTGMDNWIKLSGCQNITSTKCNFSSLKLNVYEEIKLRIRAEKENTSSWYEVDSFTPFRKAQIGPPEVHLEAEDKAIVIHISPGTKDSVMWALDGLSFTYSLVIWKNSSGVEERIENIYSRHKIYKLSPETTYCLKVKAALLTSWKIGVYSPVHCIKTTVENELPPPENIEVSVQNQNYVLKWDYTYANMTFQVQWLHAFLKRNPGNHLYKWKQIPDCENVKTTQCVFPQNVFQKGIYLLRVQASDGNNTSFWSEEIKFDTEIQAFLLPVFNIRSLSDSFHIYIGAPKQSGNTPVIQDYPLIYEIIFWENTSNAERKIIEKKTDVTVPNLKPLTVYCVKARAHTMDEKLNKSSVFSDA

[2] = molecular target: T2, hIFNAR1-extracellular domain (ECD) (human, UniProt P17181 28-424); assay: as above; conditions: both partners purified
T2 construct: interferon alpha and beta receptor subunit 1 (IFNAR1), human, extracellular domain, amino acids 28-424 of hIFNAR1 (GenBank CAA42992.1); The cloning paragraph says N-terminal 6xHis tag (modified pFastBac-1); the SPR paragraph says capture by C-terminal His-tags; The reverse primer encodes ...PGNTSK-stop; also called hIFNAR1-ECD; WT IFNAR1-ECD; not shown: 6xHis, N-terminal, kept
T2 sequence (looked up): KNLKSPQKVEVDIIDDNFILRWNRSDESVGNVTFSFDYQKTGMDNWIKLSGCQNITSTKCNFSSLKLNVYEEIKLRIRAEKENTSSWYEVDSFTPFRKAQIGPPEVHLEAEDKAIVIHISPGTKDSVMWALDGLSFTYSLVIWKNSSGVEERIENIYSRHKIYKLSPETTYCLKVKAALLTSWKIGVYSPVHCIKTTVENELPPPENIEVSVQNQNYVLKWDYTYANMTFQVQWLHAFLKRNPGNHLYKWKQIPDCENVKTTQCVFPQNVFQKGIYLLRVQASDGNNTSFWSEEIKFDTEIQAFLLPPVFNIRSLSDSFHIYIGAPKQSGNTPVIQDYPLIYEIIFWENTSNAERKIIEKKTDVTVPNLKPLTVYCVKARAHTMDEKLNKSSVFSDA

B1: human IFN-β (ReBif) (ligand, UniProt P01574 22-187, looked up)
chain: MSYNLLGFLQRSSNFQCQKLLWQLNGRLEYCLKDRMNFDIPEEIKQLQQFQKEDAALTIYEMLQNIFAIFRQDSSSTGWNETIVENLLANVYHQINHLKTVLEEKLEKEDFTRGKLMSSLHLKRYYGRILHYLKAKEYSHCAWTIVRVEILRNFYFINRLTGYLRN
notes: interferon beta, human; the drug product ReBif; also called hIFN-β; source: ReBif (hIFN-β), dialyzed into TBS
B1 was tested. Which Kd [1] did it give?
Its Kd is 28.1 nM.

What about the Kd [2] of the same binder?
The Kd was 15.8 nM.
